Assay [1] addresses T1, human PVRIG antigen (AcroBiosystem, PVG-H52H4) (human, UniProt Q6DKI7 41-171, limits assumed).
T1 sequence (looked up): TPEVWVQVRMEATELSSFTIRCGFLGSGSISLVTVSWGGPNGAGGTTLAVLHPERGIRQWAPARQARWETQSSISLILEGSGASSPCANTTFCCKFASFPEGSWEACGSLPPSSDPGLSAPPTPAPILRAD
As to the kind of experiment: SPR (Biacore X100), antibody captured on Protein A chip, 1:1 fit. (In general: In SPR one partner is held on a chip, and binding of the other changes the refractive index at the surface.)

Assay [2] addresses T2, human PVRIG expressed on cells (human, UniProt Q6DKI7 41-326).
T2 construct: whole, on cells; also called Human PVRIG FACS; cells overexpressing human PVRIG
T2 sequence (looked up): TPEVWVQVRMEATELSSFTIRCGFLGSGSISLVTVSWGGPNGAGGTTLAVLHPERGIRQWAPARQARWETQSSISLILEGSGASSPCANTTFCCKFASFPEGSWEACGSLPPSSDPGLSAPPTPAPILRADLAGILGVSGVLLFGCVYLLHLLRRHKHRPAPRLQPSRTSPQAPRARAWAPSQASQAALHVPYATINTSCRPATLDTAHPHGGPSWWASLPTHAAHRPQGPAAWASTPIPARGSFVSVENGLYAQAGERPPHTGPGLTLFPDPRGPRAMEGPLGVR
As to the kind of experiment: FACS, cells overexpressing target.

Assay [3] deals with T3, mouse IgG2a Fc-tagged human PVRIG (h-PVRIG-mIgG2a Fc) recombinant protein (human, UniProt Q6DKI7 41-171, limits assumed).
T3 construct: bought from Acrobiosystems; not shown: mouse IgG2a Fc tag
T3 sequence (looked up): T1 sequence (looked up)
Put plainly: competition ELISA; human PVRIG coated, competitor human PVRL2.

For assay [4], the target named is T2, human PVRIG expressed on cells. Put plainly: FACS, HEK293 cells overexpressing target. Here is the method:
The expression plasmid carrying human or cynomolgus monkey PVRIG gene sequence was transfected into HEK293 cells, and the over-expressing stable transfection monoclonal cell strain was obtained by antibiotic screening and infinite dilution. Overexpressing cells were seeded into a 96-well plate at 2×10⁵ cells/per well. The cells were centrifuged at 300 g for 5 min, the supernatant was then removed, 100 μL of the test antibody was added, and the mixture was incubated at 4° C. for 1 h. The mixture was centrifuged, the supernatant was removed, the plate was washed 3 times with 200 μL of wash buffer (PBS+2% FBS), and then 100 μL of an anti-human IgG secondary antibody (Invitrogen, A-11013) labeled with Alexa Fluor 488 diluted at 1:500 was added. The mixture was incubated at 4° C. for 1 h. The plate was centrifuged, and the supernatant was removed. The plate was washed 3 times with 200 μL of wash buffer (PBS+2% FBS). The cells were resuspended in 100 μL of PBS and tested on a flow cytometer (BD FACS Calibur or BD FACS Canto_II).
Binding of the humanized anti-PVRIG antibodies to human or cynomolgus monkey PVRIG was detected by using a flow cytometer according to the method of Example 5.

Assay [5] deals with T4, his-tagged human PVRIG (h-PVRIG-his) recombinant protein (human, UniProt Q6DKI7 41-171, limits assumed).
T4 construct: bought from Acrobiosystems; also called Human PVRIG-his; human PVRIG recombinant protein; not shown: his tag
T4 sequence (looked up): T1 sequence (looked up)
As to the kind of experiment: ELISA, coated antigen. (In general: In an ELISA, binding on a coated surface is turned into a signal by an enzyme label.)

Assay [6] concerns the target T2, human PVRIG expressed on cells. Put plainly: cell-based or functional assay.

The Kd is the equilibrium constant for the complex coming apart. A high value points to lower affinity. For orientation: koff means the first-order rate constant of dissociation. Low values mean slow dissociation, high ones fast dissociation. In general, kon refers to the second-order rate constant of association. Read a low kon as slow association. The EC50 is the concentration at which the effect is half-maximal. A word on the IC50: it is the midpoint of a concentration-inhibition curve.

B1: humanized anti-PVRIG/TIGIT bispecific antibody 1708-20H5 (bispecific antibody, human IgG4 S228P, kappa)
heavy: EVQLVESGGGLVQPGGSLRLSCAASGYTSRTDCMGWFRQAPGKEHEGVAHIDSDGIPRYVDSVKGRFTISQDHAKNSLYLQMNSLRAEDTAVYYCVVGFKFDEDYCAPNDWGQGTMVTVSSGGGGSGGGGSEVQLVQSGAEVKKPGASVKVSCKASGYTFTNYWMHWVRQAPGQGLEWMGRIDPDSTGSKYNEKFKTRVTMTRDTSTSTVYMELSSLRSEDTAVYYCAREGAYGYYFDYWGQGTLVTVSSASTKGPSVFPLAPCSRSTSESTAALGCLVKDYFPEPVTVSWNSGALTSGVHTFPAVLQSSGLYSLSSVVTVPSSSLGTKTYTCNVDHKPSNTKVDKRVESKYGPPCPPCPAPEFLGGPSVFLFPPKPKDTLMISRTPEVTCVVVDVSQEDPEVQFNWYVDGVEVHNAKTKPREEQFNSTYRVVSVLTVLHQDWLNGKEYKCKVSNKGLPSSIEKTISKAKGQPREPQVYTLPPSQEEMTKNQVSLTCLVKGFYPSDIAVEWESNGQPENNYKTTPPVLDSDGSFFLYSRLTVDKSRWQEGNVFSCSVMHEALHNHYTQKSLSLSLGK
light: DIQMTQSPSSLSASVGDRVTITCRASENIYSYLAWYQQKPGKSPKLLIYNARTLAEGVPSRFSGSGSGTDFTLTISSLQPEDFATYYCQYHSGSPLPFGGGTKVEIKRTVAAPSVFIFPPSDEQLKSGTASVVCLLNNFYPREAKVQWKVDNALQSGNSQESVTEQDSKDSTYSLSSTLTLSKADYEKHKVYACEVTHQGLSSPVTKSFNRGEC
With B1, in assay [1], the Kd came out at 7.82 pM, the koff came out at 0.00013 s⁻¹ and the kon was determined as 1.67e+07 M⁻¹ s⁻¹.

B2: humanized anti-PVRIG/TIGIT bispecific antibody 1708-30H2 (bispecific antibody, human IgG4 S228P, kappa)
heavy: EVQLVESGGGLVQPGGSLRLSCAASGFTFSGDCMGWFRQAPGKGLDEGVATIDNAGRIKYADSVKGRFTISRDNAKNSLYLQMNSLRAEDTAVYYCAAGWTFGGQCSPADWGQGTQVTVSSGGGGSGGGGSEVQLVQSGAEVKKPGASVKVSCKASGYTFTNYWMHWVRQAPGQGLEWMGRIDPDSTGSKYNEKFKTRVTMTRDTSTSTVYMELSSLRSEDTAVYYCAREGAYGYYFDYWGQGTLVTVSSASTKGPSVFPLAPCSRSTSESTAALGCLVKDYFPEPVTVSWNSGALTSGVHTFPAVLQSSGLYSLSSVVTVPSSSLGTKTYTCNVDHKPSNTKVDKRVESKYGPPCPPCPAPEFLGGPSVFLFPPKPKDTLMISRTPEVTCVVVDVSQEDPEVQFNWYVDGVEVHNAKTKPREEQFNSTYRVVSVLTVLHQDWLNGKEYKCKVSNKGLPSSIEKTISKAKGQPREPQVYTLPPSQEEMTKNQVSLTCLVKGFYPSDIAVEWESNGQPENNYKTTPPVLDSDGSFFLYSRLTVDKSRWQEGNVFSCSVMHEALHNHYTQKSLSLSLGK
light: B1 light
In assay [1], B2 showed a Kd of 706 pM, a koff of 0.00912 s⁻¹ and a kon of 1.29e+07 M⁻¹ s⁻¹.

B3: positive antibody Tab5 (antibody, human IgG4 S228P, kappa, F234A L235A, V domains shown)
VH: EVQLVESGGGVVKPGGSLRLSCAASGFTFGTSSMNWVRQAPGKGLEWVAVISFDGTEIHYADSVKGRFTISRDNSKSTVFLQMNSLRPDDTALYYCAKGSGNIYFYSGMDVWGQGTTVTVSS
VL: DIQMTQSPSTLSASVGDRVTITCRAGQSISGWLAWFQQKPGKAPNLLIYETSTLESGVPSRFSGSGSGTEYTLTISSLQPDDFATYYCQQYYSYPLTFGQGTKVEIKR
notes: Variable regions of CPA.7.021 (WO2016134333A1) on human IgG4 (S228P/F234A/L235A/K447A) and human kappa constant regions
As to B3, the EC50 in assay [2] came out at 3150 pM; in assay [4], 160 pM; in assay [5], 1860 pM. Moreover, the IC50 in assay [3] worked out at 797 pM. In assay [6], the “PVRIG reporter gene cell activity EC50” value came out at 1380 pM.
